Measured values published in patent US20200317758A1 (published 2020).

T1: recombinant derivative of the LukE protein (SEQ ID NO: 826) with amino-terminal poly-histidine affinity tag (UniProt Q2FXB0 24-306)
T1 chain: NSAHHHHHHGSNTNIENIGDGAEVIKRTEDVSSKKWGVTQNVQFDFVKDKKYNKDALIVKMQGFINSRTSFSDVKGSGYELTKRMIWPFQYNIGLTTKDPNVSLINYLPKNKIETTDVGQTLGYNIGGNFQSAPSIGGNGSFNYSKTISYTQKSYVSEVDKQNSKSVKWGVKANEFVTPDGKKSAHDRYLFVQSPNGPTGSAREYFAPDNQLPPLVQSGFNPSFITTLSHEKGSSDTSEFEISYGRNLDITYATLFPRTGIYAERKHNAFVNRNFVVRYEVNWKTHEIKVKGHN

T2: recombinant toxoid variant of the LukAB protein (LukA E323A) with poly-histidine and streptavidin binding … (UniProt Q2FFA2 31-351; P21224 30-338)
T2 chain 1: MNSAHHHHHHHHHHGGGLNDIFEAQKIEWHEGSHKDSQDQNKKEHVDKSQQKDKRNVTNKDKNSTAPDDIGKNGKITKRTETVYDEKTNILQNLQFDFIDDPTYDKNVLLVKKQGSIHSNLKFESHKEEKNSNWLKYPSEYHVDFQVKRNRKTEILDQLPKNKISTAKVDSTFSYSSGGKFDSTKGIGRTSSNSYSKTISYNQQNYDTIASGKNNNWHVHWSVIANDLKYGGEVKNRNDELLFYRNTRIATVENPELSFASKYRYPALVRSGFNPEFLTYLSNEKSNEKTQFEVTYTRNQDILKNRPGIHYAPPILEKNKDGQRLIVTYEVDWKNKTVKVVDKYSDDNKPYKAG
T2 chain 2: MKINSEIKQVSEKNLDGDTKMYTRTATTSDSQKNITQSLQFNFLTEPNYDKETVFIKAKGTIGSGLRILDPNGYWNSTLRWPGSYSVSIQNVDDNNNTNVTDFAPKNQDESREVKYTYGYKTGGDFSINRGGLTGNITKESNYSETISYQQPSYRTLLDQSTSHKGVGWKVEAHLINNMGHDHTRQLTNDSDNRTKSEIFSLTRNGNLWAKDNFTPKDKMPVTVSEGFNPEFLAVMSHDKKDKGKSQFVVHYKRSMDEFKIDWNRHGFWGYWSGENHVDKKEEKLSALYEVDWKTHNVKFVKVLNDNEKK

T3: recombinant derivative of the LukD protein (SEQ ID NO: 824) with amino-terminal polyhistidine affinity tag, … (UniProt Q2FXB1 27-327, chemically biotinylated in vitro (sites not given))
T3 chain: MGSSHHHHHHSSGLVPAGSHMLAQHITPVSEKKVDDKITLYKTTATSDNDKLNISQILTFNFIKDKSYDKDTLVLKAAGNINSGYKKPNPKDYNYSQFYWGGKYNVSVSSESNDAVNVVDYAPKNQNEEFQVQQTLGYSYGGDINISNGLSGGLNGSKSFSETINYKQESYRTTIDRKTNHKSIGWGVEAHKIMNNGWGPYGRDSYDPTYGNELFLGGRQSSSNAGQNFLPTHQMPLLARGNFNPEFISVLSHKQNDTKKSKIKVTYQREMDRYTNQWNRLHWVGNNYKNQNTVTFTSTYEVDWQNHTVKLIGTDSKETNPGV


Legend:
[1] = target: T1, recombinant derivative of the LukE …; assay: BLI; Step E (after SM1B332), left panel
[2] = target: T1, recombinant derivative of the LukE …; assay: BLI; Step C (first mAb), right panel
[3] = target: T1, recombinant derivative of the LukE …; assay: BLI; Step E (after SM1B332), right panel
[4] = target: T1, recombinant derivative of the LukE …; assay: BLI; Step C (first mAb), left panel
[5] = target: T2, recombinant toxoid variant of the LukAB …; assay: BLI; Step C (first mAb)
[6] = target: T2, recombinant toxoid variant of the LukAB …; assay: BLI; Step E (after SM1B249)
[7] = target: T2, recombinant toxoid variant of the LukAB …; assay: BLI; Step E (after SM1B245)
[8] = target: T3, recombinant derivative of the LukD …; assay: BLI; Step E (after SM1B221)

Binder	Kd [1]	Kd [3]	Kd [7]	other results
anti-LukE mAb SM1B332 (antibody, V domains shown) VH: QVQLKESGPGLVAPSQSLSITCTVSGLSLTSYGLSWVRQPPGKGLEWLGVIWGDGSTNYHSALISRLSISKDNSKSQVFLKLNSLQSDDTATYYCATRGDYGSYAMDYWGQGTSVTVSS VL: QIVLTQSPAIMSASPGEKVTLTCSASSSVSSSYLFWYQQKPGSSPKLWIYSTSNLASGVPVRFSGSGFGTSYSLTISRMEAEDAASYFCHQWSSYPPTFGAGTKLELKR	4.9 nM	4.9 nM		Kd [2]: 1.47 nM; Kd [4]: 1.38 nM
anti-LukE mAb SM1B318 (antibody, V domains shown) VH: QVQLQQSGAELMNPGASVKISCKSTGYKFSSYWIEWVKQRPGHGLEWMGEILPGSGSTNHNEKFKGKAIFTADASSNTAYMELSSLTSEDSAVYYCARTISTATDWFAYWGQGTLVTVSA VL: DVLMTQTPLSLPVSLGDQASISCRSSQTIVYSDGNTYLEWYLQKPGQSPKLLIYKVSNRFSGVPDRVSGSGSGTDFTLKISRVEAEDLGVYYCFQGSHVPYTFGGGTKLEIKR	5.04 nM			
anti-LukE mAb SM1B507 (antibody) heavy: EVQLQQSGAELVKPGASVKMSCKASGYTFTDYYMDWVKQSHGKSFEWIGHVNPYNGDTRYNQKFKGKATLTVDKSSTTAYMELNSLTSEDSAVYYCARGNFFDYWGQGTTLSVSSAKTTPPSVYPLAPGSAAQTNSMVTLGCLVKGYFPEPVTVTWNSGSLSSGVHTFPAVLESDLYTLSSSVTVPSSPRPSETVTCNVAHPASSTKVDKKIVPRDCGCKPCICTVPEVSSVFIFPPKPKDVLTITLTPKVTCVVVDISKDDPEVQFSWFVDDVEVHTAQTQPREEQFNSTFRSVSELPIMHQDWLNGKEFKCRVNSAAFPAPIEKTISKTKGRPKAPQVYTIPPPKEQMAKDKVSLTCMITDFFPEDITVEWQWNGQPAENYKNTQPIMNTNGSYFVYSKLNVQKSNWEAGNTFTCSVLHEGLHNHHTEKSLSHSPGK light: DIVMTQSPAIMSASPGEKVTIPCSASSSVSYMHWFQQKPGTSPKLWIYSTSNLASGVPGRFSGSGSGTSYSLTISRMEAEDAATYYCQQRSNYPLTFGAGTKLELKRADAAPTVSIFPPSSEQLTSGGASVVCFLNNFYPKDINVKWKIDGSERQNGVLNSWTDQDSKDSTYSMSSTLTLTKDEYERHNSYTCEATHKTSTSPIVKSFNRNEC		3.52 nM		
anti-LukAB mAb SM1B245 (antibody, V domains shown) VH: QVQLQQSGAELAKPGASVKMSCKSSGYTFSTYWMHWVKQRPGQGLEWIGYINPNTGYTEYNQKFKDTATLTADKSSSTAYMQLSSLTSEDSAVYYCARGGSKAFPYYAMDYWGQGTSVTVSS VL: DIVLTQSPASLAVSLGQRATMSCRASESVDGYGNSFLHWYQQKPGQPPKLLIYRASNLESGIPARFSGTGSRTDFTLTITPVEADDVATYYCQQSNGDPFTFGSGTKLEIKR			11.5 nM	Kd [5]: 0.656 nM; Kd [6]: 1.31 nM
antibody SM1B225 (antibody, V domains shown) VH: EVQLQQSGGGLVKPGGSLKLSCAASGFTFSSYAMSWVRQTPEKRLEWVATITGGGTYTYYLDSVKGRFTISRDNAKTSLYLQMSSLRSEDTAMYYCARHRDGNYGCFDVWGAGTTVTVSS VL: DIVLTQSPAIMSASLGERVTMTCTASSSVSSSYLHWYQQKPGSSPKLWVYSTSNLASGVPARFSGSGSGSSYSLTISSMEPEDTATYYCHQYHRSPQTFGGGTKLEIKR				Kd [8]: 4.67 nM
anti-LukAB mAb SM1B111 (antibody, V domains shown) VH: EVQLQQSGAELVKPGASVKISCKASGYAFSSSWMNWLKQRPGKGLEWIGRIYPGDGDTNYNGKFKGKATLTADKSSSTAYMQLSSLTSEDSAVYFCARYGYDYDGEYYYAMDYWGQGTSVTVSS VL: DIVMTQSPTTMAASPGERITITCSAHSNLISNYLHWYQQKPGFSPKLLIYRTSNLASGVPARFSGSGSGTSYSLTIGTMEAEDVATYFCQQGSSIPFTFGSGTKLEIKR			4.53 nM	
